Numbering of substitutions follows the chain as printed. Blank lines part the entries; values can stand above or below the binder they belong to.
Legend:
[1] = biological target: T1, FcγRIIIa V type extracellular domain, His tag (human, UniProt P08637 17-208); assay: SPR, KD ratio
T1 construct: extracellular domain; also called FcgRIIIaV

[2] = biological target: T2, FcγRIIa H type extracellular domain, His tag (human, UniProt P12318 34-217); assay: SPR, KD ratio
T2 construct: extracellular domain; also called FcgRIIaH
T2 sequence (looked up): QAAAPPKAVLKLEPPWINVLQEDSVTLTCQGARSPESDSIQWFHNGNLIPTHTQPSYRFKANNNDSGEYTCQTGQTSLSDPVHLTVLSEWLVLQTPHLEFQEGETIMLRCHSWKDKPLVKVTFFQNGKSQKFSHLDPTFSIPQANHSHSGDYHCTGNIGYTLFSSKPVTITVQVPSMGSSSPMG

[3] = biological target: T3, FcγRIIb extracellular domain, His tag (human, UniProt P31994 43-217); assay: SPR, KD ratio
T3 construct: extracellular domain; also called FcgRIIb
T3 sequence (looked up): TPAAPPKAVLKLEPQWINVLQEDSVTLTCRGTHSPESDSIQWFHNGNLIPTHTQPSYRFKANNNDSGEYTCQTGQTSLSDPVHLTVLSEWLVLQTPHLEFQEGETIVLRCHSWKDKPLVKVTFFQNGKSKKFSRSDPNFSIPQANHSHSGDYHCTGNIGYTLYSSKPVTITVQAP

[4] = biological target: T4, FcγRIIa R type extracellular domain, His tag (human, UniProt P12318 34-217); assay: SPR, KD ratio
T4 construct: extracellular domain; also called FcgRIIaR
T4 sequence (looked up): T2 sequence (looked up) with H134R

[5] = biological target: T5, FcγRIa extracellular domain, His tag (human, UniProt P12314 16-292); assay: SPR, KD ratio
T5 construct: whole entry named; also called FcgRIa

[6] = biological target: T3, FcγRIIb extracellular domain, His tag; assay: SPR, bound amount per captured antibody
[7] = biological target: T4, FcγRIIa R type extracellular domain, …; assay: SPR, bound amount per captured antibody
[8] = biological target: T6, FcγRIIb extracellular domain with C-terminal His tag (human, UniProt P31994 43-217); assay: SPR; KD of IL6R-B3/IL6R-L divided by KD of variant
T6 construct: extracellular domain; also called FcgRIIb; not shown: His tag at the C terminus
T6 sequence (looked up): T3 sequence (looked up)

[9] = biological target: T7, FcγRIIa R type extracellular domain with C-terminal His tag (human, UniProt P12318 34-217); assay: SPR; KD of IL6R-B3/IL6R-L divided by KD of variant
T7 construct: extracellular domain; also called FcgRIIaR; not shown: His tag at the C terminus
T7 sequence (looked up): T2 sequence (looked up) with H134R

[10] = biological target: T6, FcγRIIb extracellular domain with …; assay: SPR, antibody captured, FcgR analyte
[11] = biological target: T8, FcγRIa extracellular domain with C-terminal His tag (human, UniProt P12314 16-292); assay: SPR, antibody captured, FcgR analyte
T8 construct: also called FcgRIa; CD64; not shown: His tag at the C terminus

[12] = biological target: T7, FcγRIIa R type extracellular domain …; assay: SPR, antibody captured, FcgR analyte

T1 sequence (P08637 17-208 F176V): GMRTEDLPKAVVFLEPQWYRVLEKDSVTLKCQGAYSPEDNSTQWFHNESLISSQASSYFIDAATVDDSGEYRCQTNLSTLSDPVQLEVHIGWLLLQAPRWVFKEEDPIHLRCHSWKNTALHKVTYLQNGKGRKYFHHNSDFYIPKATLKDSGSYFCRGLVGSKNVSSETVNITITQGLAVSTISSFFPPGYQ
T5 sequence (P12314 16-292): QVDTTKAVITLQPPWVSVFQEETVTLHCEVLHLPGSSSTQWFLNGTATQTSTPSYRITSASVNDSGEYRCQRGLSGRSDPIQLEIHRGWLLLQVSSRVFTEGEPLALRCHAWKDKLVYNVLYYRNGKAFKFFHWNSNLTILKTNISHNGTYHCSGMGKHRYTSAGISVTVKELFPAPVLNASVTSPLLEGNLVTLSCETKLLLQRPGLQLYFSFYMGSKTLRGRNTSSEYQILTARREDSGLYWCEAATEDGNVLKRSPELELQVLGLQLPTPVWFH
T8 sequence (P12314 16-292): as above

Relative FcgRIIb-binding Activity [6]: 73.3 % of IL6R-G1d/IL6R-L
Relative FcgRIIaR-binding Activity [7]: 11.2 % of IL6R-G1d/IL6R-L
B2: IL6R-P662/IL6R-L (antibody, human IgG1, kappa)
heavy: QVQLQESGPGLVKPSETLSLTCAVSGHSISHDHAWSWVRQPPGEGLEWIGFISYSGITNYNPSLQGRVTISRDNSKNTLYLQMNSLRAEDTAVYYCARSLARTTAMDYWGEGTLVTVSSASTKGPSVFPLAPSSKSTSGGTAALGCLVKDYFPEPVTVSWNSGALTSGVHTFPAVLQSSGLYSLSSVVTVPSSSLGTQTYICNVNHKPSNTKVDKKVEPKSCDKTHTCPPCPAPELLGGDSVFLFPPKPKDTLMISRTPEVTCVVVDVSHEDPEVKFNWYVDGVEVHNAKTKPREEQDNATYRVVSVLTVLHQDWLNGKEYKCKVNNKALPAPIEKTISKAKGQPREPQVYTLPPSRDELTKNQVSLTCLVKGFYPSDIAVEWESNGQPENNYKTTPPVLDSDGSFFLYSKLTVDKSRWQQGNVFSCSVMHEALHNHYTQKSLSLSP
light: not shown

Relative FcgRIIIaV-binding Activity [1]: 0.007 fold of IL6R-G1d/IL6R-L
Relative FcgRIIaH-binding Activity [2]: 0.011 fold of IL6R-G1d/IL6R-L
Relative FcgRIIb-binding Activity [3]: 2.68 fold of IL6R-G1d/IL6R-L
Relative FcgRIIaR-binding Activity [4]: 0.032 fold of IL6R-G1d/IL6R-L
Relative FcgRIa-binding Activity [5]: 0.0118 fold of IL6R-G1d/IL6R-L
Relative FcgRIIb-binding Activity [6]: 138 % of IL6R-G1d/IL6R-L
Relative FcgRIIaR-binding Activity [7]: 18.2 % of IL6R-G1d/IL6R-L
B3: IL6R-P656/IL6R-L (antibody, human IgG1, kappa)
heavy: B2 heavy with F243M, D298E, A300S, N326S, A332H
light: not shown

Relative FcgRIIIaV-binding Activity [1]: 0.004 fold of IL6R-G1d/IL6R-L
Relative FcgRIIaH-binding Activity [2]: 0.009 fold of IL6R-G1d/IL6R-L
Relative FcgRIIb-binding Activity [3]: 1.9 fold of IL6R-G1d/IL6R-L
Relative FcgRIIaR-binding Activity [4]: 0.026 fold of IL6R-G1d/IL6R-L
Relative FcgRIa-binding Activity [5]: 0.015 fold of IL6R-G1d/IL6R-L
Relative FcgRIIb-binding Activity [6]: 130 % of IL6R-G1d/IL6R-L
Relative FcgRIIaR-binding Activity [7]: 16.9 % of IL6R-G1d/IL6R-L
B6: IL6R-P603/IL6R-L (antibody, human IgG1, kappa)
heavy: B2 heavy with F243M, D298E, A300S, V325I, N326S
light: not shown

Relative FcgRIIb-binding Activity [6]: 79.7 % of IL6R-G1d/IL6R-L
Relative FcgRIIaR-binding Activity [7]: 10.1 % of IL6R-G1d/IL6R-L
B7: IL6R-P663/IL6R-L (antibody, human IgG1, kappa)
heavy: B2 heavy with N326S, A332H
light: not shown

Relative FcgRIIIaV-binding Activity [1]: 0.005 fold of IL6R-G1d/IL6R-L
Relative FcgRIIaH-binding Activity [2]: 0.006 fold of IL6R-G1d/IL6R-L
Relative FcgRIIb-binding Activity [3]: 0.807 fold of IL6R-G1d/IL6R-L
Relative FcgRIIaR-binding Activity [4]: 0.015 fold of IL6R-G1d/IL6R-L
Relative FcgRIa-binding Activity [5]: 0.0041 fold of IL6R-G1d/IL6R-L
Relative FcgRIIb-binding Activity [6]: 87 % of IL6R-G1d/IL6R-L
Relative FcgRIIaR-binding Activity [7]: 9.1 % of IL6R-G1d/IL6R-L
B9: IL6R-P659/IL6R-L (antibody, human IgG1, kappa)
heavy: B2 heavy with G239Q, F243M, D298E, A300S, N326S
light: not shown

Relative FcgRIIIaV-binding Activity [1]: 0.007 fold of IL6R-G1d/IL6R-L
Relative FcgRIIaH-binding Activity [2]: 0.014 fold of IL6R-G1d/IL6R-L
Relative FcgRIIb-binding Activity [3]: 2.02 fold of IL6R-G1d/IL6R-L
Relative FcgRIIaR-binding Activity [4]: 0.032 fold of IL6R-G1d/IL6R-L
Relative FcgRIa-binding Activity [5]: 0.0206 fold of IL6R-G1d/IL6R-L
Relative FcgRIIb-binding Activity [6]: 128 % of IL6R-G1d/IL6R-L
Relative FcgRIIaR-binding Activity [7]: 18.2 % of IL6R-G1d/IL6R-L
B10: IL6R-P654/IL6R-L (antibody, human IgG1, kappa)
heavy: B2 heavy with F243M, D298E, A300S
light: not shown

More lines, now with the values behind:

B1: IL6R-P591/IL6R-L (antibody, human IgG1, kappa)
heavy: B2 heavy with F243M, D298E, A300S, N326S
light: not shown
Relative FcgRIIIaV-binding Activity [1]: 0.008 fold of IL6R-G1d/IL6R-L
Relative FcgRIIaH-binding Activity [2]: 0.011 fold of IL6R-G1d/IL6R-L
Relative FcgRIIb-binding Activity [3]: 1.65 fold of IL6R-G1d/IL6R-L
Relative FcgRIIaR-binding Activity [4]: 0.034 fold of IL6R-G1d/IL6R-L
Relative FcgRIa-binding Activity [5]: 0.0138 fold of IL6R-G1d/IL6R-L
Relative FcgRIIb-binding Activity [6]: 131 % of IL6R-G1d/IL6R-L
Relative FcgRIIaR-binding Activity [7]: 20 % of IL6R-G1d/IL6R-L

B4: IL6R-BP559/IL6R-L (antibody, human IgG1, kappa, name in EU numbering)
heavy: B2 heavy with V266I, S269A, H270E, P273G, E274D, A300S, N326S, K441E
light: not shown
notes: human IgG1
Relative FcgRIIb-binding Activity [8]: 110
Relative FcgRIIaR-binding Activity [9]: 0.7
Kd [10]: 28 nM
Kd [11]: 1.1 nM
Kd [12]: 1600 nM

B5: IL6R-P602/IL6R-L (antibody, human IgG1, kappa)
heavy: B2 heavy with F243M, Q297V, D298E, A300S, N326S
light: not shown
Relative FcgRIIIaV-binding Activity [1]: 0.006 fold of IL6R-G1d/IL6R-L
Relative FcgRIIaH-binding Activity [2]: 0.01 fold of IL6R-G1d/IL6R-L
Relative FcgRIIb-binding Activity [3]: 2.13 fold of IL6R-G1d/IL6R-L
Relative FcgRIIaR-binding Activity [4]: 0.028 fold of IL6R-G1d/IL6R-L
Relative FcgRIa-binding Activity [5]: 0.0174 fold of IL6R-G1d/IL6R-L
Relative FcgRIIb-binding Activity [6]: 112 % of IL6R-G1d/IL6R-L
Relative FcgRIIaR-binding Activity [7]: 18.1 % of IL6R-G1d/IL6R-L

B8: IL6R-BP568/IL6R-L (antibody, human IgG1, kappa, name in EU numbering)
heavy: B2 heavy with E235D, V266I, S269A, H270E, P273G, D298Y, A300S, N326S, K441E
light: not shown
notes: human IgG1
Relative FcgRIIb-binding Activity [8]: 210
Relative FcgRIIaR-binding Activity [9]: 1.6
Kd [10]: 15 nM
Kd [11]: 0.19 nM
Kd [12]: 680 nM

Reference: patent publication US20220411483A1 (Chugai, published 2022)
